Biological target: T1, GST-SVIP (Drosophila SVIP, CG32039) (Drosophila, UniProt Q8IQC6 1-82)
T1 chain: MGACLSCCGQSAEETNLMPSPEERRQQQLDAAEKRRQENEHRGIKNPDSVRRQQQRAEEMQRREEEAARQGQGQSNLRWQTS

Kd: 700 nM
B1: MBP-VCP^N-D1 (Drosophila VCP, N-terminal and first D1 ATPase domain) (domain or fragment)
chain: MADSKGEDLATAILKRKDRPNRLIVEEAQNDDNSVVSLSQAKMDELQLFRGDTVILKGKRRKETVCIVLSDDTCPDEKIRMNRVVRNNLCVHLSDVVSVQSCPDVKYGKRVRILPIDESTEGVTGNLFEIYLKPYFLEAYRPIHMGDNFIVRAAMRPIEFKVVLTDPEPYCIVAPETVIFCDGDPIKREEEEESLNAVGYDDIGGCRKQLAQIKEMVELPLRHPSLFKAIGVKPPRGILMYGPPGTGKTLIARAVANETGAFFFLINGPEIMSKLAGESESNLRKAFEEAEKNSPAIIFIDEIDAIAPKRDKTHGEVERRIVSQLLTLMDGMKKSSHLIVMAATNRPNSIDPALRRFGRFDREIDIGIPDATGRLEVLRIHTKNMKLHDDVDLEQIAAESHGHVGADLASLCSEAALQQIREKMDLIDLEDDKIDAEVLASLAVTMENFRYAMTKSSPSALRETVVEVPNTTWTDIGGLESVKKELQELVQYPVEHPDKFLKFGMQPSRGVLFYGPPGCGKTLLAKAIANECQANFISVKGPELLTMWFGESEANVRDIFDKARSAAPCVLFFDELDSIAKARGGNVGDAGGAADRVINQILTEMDGMGAKKNVFIIGATNRPDIIDPAILRPGRLDQLIYIPLPDDKSREAILKANLRKSPLAKEVDLTYIAKVTQGFSGADLTEICQRACKLAIRQAIEAEIRREKERAENQNSAMDMDEDDPVPEITSAHFEEAMKFARRSVSDNDIRKYEMFAQTLQQSRGFGQNFRFPGQTGNTSGSGNNLPVNSPGDNGDDDLYS

— PMC7820495 (2021)
